{"source": "paper PMC12148439", "key": {"[1]": {"molecular_target": "CitAGacS649 (chimeric protein: GacS649 with its PDC domain replaced by the PDC domain of CitA from Klebsiella pneumoniae, C-terminal octa-histidine tag) (Pseudomonas aeruginosa | Klebsiella pneumoniae) (UniProt P52687)", "test": "MST; CitAGacS649 labelled with AlexaFluor 488 at 80 nM, RetSHK titrated from 140 uM to 1.06 nM, 37 °C, 0.007% DDM, with 10 mM sodium citrate"}, "[2]": {"molecular_target": "GacS649 (GacS residues 1-649 with C-terminal octa-histidine tag) (Pseudomonas aeruginosa)", "test": "MST; GacS649 or CitAGacS649 labelled with AlexaFluor 488 at 80 nM, RetSHK titrated from 140 uM to 1.06 nM, 37 °C, 0.007% DDM, no citrate; apparent constants"}, "[3]": {"molecular_target": "CitAGacS649 (chimeric protein: GacS649 with its PDC domain replaced by the PDC domain of CitA from Klebsiella pneumoniae, C-terminal octa-histidine tag) (Pseudomonas aeruginosa | Klebsiella pneumoniae) (UniProt P52687)", "test": "MST; GacS649 or CitAGacS649 labelled with AlexaFluor 488 at 80 nM, RetSHK titrated from 140 uM to 1.06 nM, 37 °C, 0.007% DDM, no citrate; apparent constants"}}}
{"binder": "RetSHK (histidine kinase region of the sensor histidine kinase RetS, residues 413-649) (domain or fragment) QTKAEFLAKISHEIRTPMNGVLGMTELLLGTPLSAKQRDYVQTIHSAGNELLTLINEILDISKLESGQIELDEVQFDLNALIEDCLDIFRVKAEQQRIELISFTQPQVPRVIGGDPTRLRQVVLSLLDNAFKQTEEGEILLVVALDDQGETPRLRIAVQDSGHPFDAKEREALLTAELHSGDFLSASKLGSHLGLIIARQLVRLMGGEFGIQSGSSQGTTLSLTLPLDPQQLENPTA", "values": [{"measurement": "fold decrease in affinity with 10 mM citrate against no citrate", "setting": "[1]", "value": 5, "unit": "fold"}, {"measurement": "Kd", "setting": "[2]", "value": 10, "unit": "µM"}, {"measurement": "Kd", "setting": "[3]", "value": 10, "unit": "µM"}]}
